Source: publication PMC6146036 (Frontiers in Molecular Neuroscience, 2018)
Entries after “also recorded” stand apart in the source; their conditions may differ.

Assays:
[1] = biological target: T1, human recombinant choline acetyltransferase (rChAT) (Homo sapiens, UniProt P28329); assay: Fluorometric in vitro ChAT activity assay (human rChAT, CPM read-out); type: biochemical; settings: for direction of effect on ChAT activity at high concentrations: 0 to 3,800 ng/mL (0–833.3 nM), 1:2 dilutions, two independent experiments, Figure 2C; for difference in slopes of ChAT rate vs gelatin control: 6.4 ng/mL Aβ40 or 0.16 ng/mL Aβ42 (F = 21, p < 0.0001), linear regression; for effect on increases in ChAT activity at the higher Aβ concentration points: 160 and 800 ng/mL Aβ40, 100 ng/mL Aβ42, activity still higher than baseline; for concentration range giving the highest level of ChAT activation in the mixture: Aβ40:Aβ42 10:1 mixture, Figure 5C, with or without gelatin; for effect on ChAT activity at physiological concentrations: CSF concentrations ∼4–6.4 ng/mL Aβ40, ∼0.4–0.8 ng/mL Aβ42, Figures 2A,B
T1 construct: made in house; host or cells: E. coli BL21 Rosetta2
T1 sequence (P28329 1-630 isoform P28329-3): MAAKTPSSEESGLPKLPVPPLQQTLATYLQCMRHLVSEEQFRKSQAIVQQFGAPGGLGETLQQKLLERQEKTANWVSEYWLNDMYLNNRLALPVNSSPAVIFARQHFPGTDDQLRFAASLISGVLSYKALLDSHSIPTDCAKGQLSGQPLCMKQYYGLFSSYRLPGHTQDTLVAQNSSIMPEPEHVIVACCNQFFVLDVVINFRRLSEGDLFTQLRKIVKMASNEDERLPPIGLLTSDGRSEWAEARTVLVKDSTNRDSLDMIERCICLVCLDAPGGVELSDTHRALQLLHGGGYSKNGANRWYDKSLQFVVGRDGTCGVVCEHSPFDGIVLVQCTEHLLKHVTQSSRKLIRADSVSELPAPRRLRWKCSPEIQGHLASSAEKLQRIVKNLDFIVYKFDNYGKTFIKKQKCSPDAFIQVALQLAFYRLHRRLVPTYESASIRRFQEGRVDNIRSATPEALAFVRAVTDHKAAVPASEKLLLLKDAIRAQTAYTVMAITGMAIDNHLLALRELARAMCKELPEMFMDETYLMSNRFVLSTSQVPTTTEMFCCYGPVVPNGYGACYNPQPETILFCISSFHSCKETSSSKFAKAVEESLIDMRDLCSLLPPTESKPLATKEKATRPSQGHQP
Method: Recombinant ChAT was purified as described previously ([Kumar et al., 2016a], [2017]). Briefly, DYT media was inoculated with an O/N culture of E. coli BL21 Rosetta2 transformed with pProExHTa-ChAT (a gift from Dr. Brian Shilton, Department of Biochemistry, University of Western Ontario, London, ON, Canada). The bacteria were grown in shaking incubator at 37°C with 200 rpm until the optical density at 600 nm reached 0.5. After which, 0.5 mM IPTG was added and His6-ChAT was expressed for approximately 16 h at 18°C. Next, the cells were harvested and His6-ChAT was purified with “Ni-NTA fast start Kit” (Qiagen) following the manufacturer’s instructions. The elution buffer was exchanged to storage buffer [10 mM Tris pH 7.4, 500 mM NaCl, 10% (v/v) glycerol] using 30 kDa molecular weight cutoff Amicon Ultra concentrators (Merck Millipore). The purity and molecular weight of the protein were determined using SDS-PAGE electrophoresis. The total protein concentration was determined using DC Protein Assay (Bio-Rad). The purified protein was aliquoted and stored at −80°C.
ChAT activity was measured with our newly developed robust in-house fluorometric assay, using human rChAT protein. […] The reagents, choline chloride (C7017), acetyl coenzyme-A (ACoA, A2181), 7-diethylamino-3-(4-maleimidophenyl)-4-methylcoumarin (CPM) (C1484), thioflavin-T (ThT; T3516), and gelatin (G7041) were purchased from Sigma-Aldrich (St. Louis, MO, United States).
Then, 50 μL of a cocktail-A [dilution buffer containing 10 μM ACoA (final concentration) and 15 μM CPM (final concentration)] was added to each well. Immediately after adding the cocktail-A, the changes in fluorescence were monitored kinetically at 479 nm emission wavelength after exciting at 390 nm wavelength, at 1- to 2-min intervals for 15–20 min using a microplate spectrophotometer reader (Infinite M1000, Tecan).
Each Aβ peptide dilution was run in triplicates. On each 96-wells plate, several enzyme wells without Aβ were also included as positive controls and for estimating the activation level by Aβ peptides. Negative controls were wells without enzyme, but with all the other above-mentioned reagents. The kinetic rate of enzyme activity (as ΔRFU/min slope data) was calculated and processed using the GraphPad Prism 7 analysis software. The actual rate values as well as statistical analysis values (P-values) of ChAT activity at different Aβ concentrations or alone were calculated after fitting the curve with the linear regression function in the GraphPad Prism 7. […]

[2] = Thioflavin-T (ThT) fluorescence Aβ fibrillization assay; type: physicochemical; settings: 800 ng/mL Aβ40, 100 ng/mL Aβ42; ThT 1 μM, pH 7.4, 37°C overnight, ex 450/em 485 nm, ChAT, choline and ACoA as in activity assay; method: quadruplicate, legend: mean ± SEM of three readings
Method: The ThT fluorescence assay was used to ensure that the Aβ peptides remained soluble during the aforementioned experimental setups. The ThT fluorescence assay was performed in 96-well black plates with a transparent bottom, as described before ([Kumar et al., 2016b]). […] The concentration of ChAT, choline, and ACoA were as used in the aforementioned experiments. To each well, 100 μL/well of a 1 μM ThT solution was added, the plate was then carefully sealed and the changes in fluorescence were monitored from the bottom of the wells, at an emission and excitation wavelengths of 485 nm and 450 nm, respectively, at 15-min intervals at 37°C for an overnight duration, using a microplate spectrophotometer reader (Infinite M1000, Tecan). Each Aβ peptide concentration was run in quadruplicate. Several wells with Aβ alone were also included as control, and wells without ThT were used as negative controls.

[3] = test system: cultured cholinergic neurons; settings: high nanomolar concentration; ref Pedersen et al., 1996; Hoshi et al., 1997; Kar et al., 1998; Nunes-Tavares et al., 2012; cited from earlier work
Excerpt: The functional relationship between Aβ and the cholinergic system, especially ChAT, is quite complex and still need further exploration to gain a better understanding of Aβ native function and role in AD pathology.

Substance | effect of gelatin on ChAT activity ([1]; gelatin 0 to 4 mg/mL, mean ± SD of four readings) | change in ChAT activity by gelatin ([1]; gelatin 0.5 to 4 mg/mL, Figure 4A, mean ± SD of four readings) | direction of effect on ChAT activity at high concentrations [1] | rate of ChAT activity in the presence of Aβ40 ([1]; 6.4 ng/mL Aβ40, rChAT 0.146 μg/mL, 150 μM choline chloride, 10 μM ACoA, 15 μM CPM, 30 min room temperature, pH 7.4, no gelatin, mean ± SD of ≥2 readings, control (ChAT alone) 26.06 ± 1.07, F = 33.21, p < 0.0001) | difference in elevations or intercepts of ChAT rate vs gelatin control ([1]; 1 mg/mL gelatin, 6.4 ng/mL Aβ40, F = 9.2, p < 0.004) | difference in slopes of ChAT rate vs gelatin control ([1]; 1 mg/mL gelatin) | effect on increases in ChAT activity at the higher Aβ concentration points [1] | concentration range giving the highest level of ChAT activation in the mixture [1] [ng/mL] | effect on ChAT activity at physiological concentrations ([1]; no gelatin) | concentration at which the increase in ChAT activity reaches a plateau ([1]; no gelatin, dilution series 0–800 ng/mL Aβ40, 0–100 ng/mL Aβ42) [ng/mL] | overall effect on ChAT across experiments ([1]; some experiments vs others) | difference in ThT fluorescence intensity vs control wells (no Aβ) [2] | rate of ChAT activity in the presence of Aβ42 ([1]; 0.16 ng/mL Aβ42, rChAT 0.146 μg/mL, 150 μM choline chloride, 10 μM ACoA, 15 μM CPM, 30 min room temperature, pH 7.4, no gelatin, mean ± SD of ≥2 readings, control (ChAT alone) 53.8 ± 1.11, F = 98.5, p < 0.0001) | reduction in ACh synthesis [3]
gelatin [reference compound] | slight increase in the rate of ChAT activity within the 0.5–2 mg/mL gelatin concentration range; also recorded: no significant effect on ChAT activity | −5% to +9 |  |  |  |  |  |  |  |  |  |  |  | 
Aβ40: amyloid-β peptide, recombinant, purchased from rPeptide (Cat no. A-1153-1) |  |  | inhibition of ChAT rather than activation | 36.5 ± 1.48 ΔRFU/min | significant | not statistically significant | started to decline | 1.3 to 6.4 | able to increase the activity of ChAT at physiological concentrations | ~32 | inhibited ChAT in some experiments, while in others it enhanced its activity | no significant differences in the ThT fluorescence intensity |  | 
Aβ42: amyloid-β peptide, recombinant, purchased from rPeptide (Cat no. A-1166-1) |  |  | activation of ChAT |  |  | statistically highly significant | started to decline | 0.12 to 0.64 | able to increase the activity of ChAT at physiological concentrations |  |  | no significant differences in the ThT fluorescence intensity | 71.6 ± 1.41 ΔRFU/min | 40–50%
